{"source": "patent US8067674B2", "about": "“Desaturase genes, enzymes encoded thereby, and uses thereof” (Abbott Laboratories, priority 2002, dated 2011)", "molecules": {"B1": {"name": "SDD17: omega-3 desaturase of 358 amino acid residues (SEQ ID NO: 26) encoded by sdd17 from Saprolegnia diclina (ATCC 56851) (protein, listed as Saprolegnia diclina)", "chain": "MTEDKTKVEFPTLTELKHSIPNACFESNLGLSLYYTARAIFNASASAALLYAARSTPFIADNVLLHALVCATYIYVQGVIFWGFFTVGHDCGHSAFSRYHSVNFIIGCIMHSAILTPFESWRVTHRHHHKNTGNIDKDEIFYPHRSVKDLQDVRQWVYTLGGAWFVYLKVGYAPRTMSHFDPWDPLLLRRASAVIVSLGVWAAFFAAYAYLTYSLGFAVMGLYYYAPLFVFASFLVITTFLHHNDEATPWYGDSEWTYVKGNLSSVDRSYGAFVDNLSHHIGTHQVHHLFPIIPHYKLNEATKHFAAAYPHLVRRNDEPIITAFFKTAHLFVNYGAVPETAQIFTLKESAAAAKAKSD"}}, "system": "fatty acid substrates", "assay": "Yeast expression of the omega-3 desaturase (SDD17, sdd17 in pYX242) with exogenous fatty acid substrates, FAME/GC analysis", "type": "cell-based, Saccharomyces cerevisiae (SC334)", "conditions": "for % Conversion: 24° C.", "from_the_text": "To determine the substrate specificity and the class of reaction catalyzed by the SDD17-protein, sdd17 was heterologously expressed in a Saccharomyces cerevisiae (SC334). Because S. cerevisiae cannot synthesize fatty acids beyond OA (18:1n-9), it is an ideal system to use to determine enzyme activity on substrates longer than OA because no background enzyme activity will be detected. Suitable fatty acid substrates can be exogenously supplied to the host which are taken up by the cell and acted on by the expressed protein of the transformed sdd17 gene.\nClone pRSP19, which contained the full-length omega-3 desaturase (sdd17) from S. diclina cloned into pYX242, was transformed into Saccharomyces cerevisiae (SC334) using the “Alkali-Cation Yeast Transformation”-brand kit (BIO 101, Vista, Calif.). Transformants were selected for leucine auxotrophy on media lacking leucine (DOB [-Leu]). To detect the specific desaturase activity of these clones, transformants were grown in the presence of 50 μM of each of LA (18:2n-6), GLA (18:3n-6),\nDGLA (20:3n-6), AA (20:4n-6), and adrenic acid (22:4n-6). Conversion of these exogenously supplied fatty acid substrates into a product having one additional unsaturation indicates the presence of a specific desaturase activity that is not found in the wild-type S. cerevisiae:\nThe negative control strain was S. cerevisiae transformed with the pYX242 vector. The experimental cultures and the control cultures were grown simultaneously and analyzed.\nThe cultures were vigorously agitated (250 rpm) and grown for 48 hours at 24° C. in the presence of 50 μM (final concentration) of the various substrates (see Table 3). The cells were spun down, washed once in distilled water, and the pellets resuspended in methanol; chloroform was added along with tritridecanoin (as an internal standard). These mixtures were incubated for at least an hour at room temperature, or at 4° C. overnight. The chloroform layer was extracted and filtered through a Whatman filter with 1 gm anhydrous sodium sulfate to remove particulate matter and residual water. The organic solvents were evaporated at 40° C. under a stream of nitrogen. The extracted lipids were then converted to fatty acid methyl esters (FAME) for gas chromatography analysis (GC) by adding 2 ml 0.5 N potassium hydroxide in methanol to a closed tube. The samples were heated to 95° C.-100° C. for 30 minutes and cooled to room temperature. Approximately 2 ml 14% borontrifluoride in methanol was added and the heating repeated. After the extracted lipid mixture cooled, 2 ml of water and 1 ml of hexane were added to extract the FAME for analysis by GC. The percent conversion was calculated using the formula: […]\n(i.e. 15° C.). Here, 50 μM of exogenous substrate was added to the transformants and the cultures were grown for 48 hours at 15° C. Fatty acid analysis was carried out as described above. The overall uptake of substrate by S. cerevisiae at 15° C. was lower than that seen at 24° C. (compare Table 3 & Table 4). However the percent conversion of substrate to product by the enzyme increased at 15° C. Since the presence of lower concentration of exogenous fatty acid substrate seemed to improve the activity of the enzyme, it is possible that fatty acid substrates at high concentrations may exert a feed-back inhibition on this enzyme. […]", "data": [{"molecule": "B1", "values": [{"measurement": "percent conversion of substrate to product at 15° C. compared with 24° C.", "setting": "15° C. vs 24° C., 50 μM substrate, 48 hours", "result": "increased"}, {"measurement": "% Conversion", "setting": "20:3 n-6 (DGLA) to 20:4 n-3 (ETA) (Delta 17), 48 hours, 50 μM substrate", "result": 5, "unit": "%"}, {"measurement": "% Conversion", "setting": "20:4 n-6 (AA) to 20:5 n-3 (EPA) (Delta 17), 48 hours, 50 μM substrate", "result": 13.8, "unit": "%"}, {"measurement": "% Conversion", "setting": "22:4 n-6 (adrenic acid) to 22:5 n-3 (DPA) (Delta 19), 48 hours, 50 μM substrate", "result": 4, "unit": "%"}, {"measurement": "desaturation of C18 omega-6 fatty acyl substrates to their corresponding omega-3 fatty acids", "setting": "under the conditions tested", "result": "did not desaturate"}]}]}
